Here are results for 1 molecule from PMC3686109.

For the series, the target named is streptavidin (UniProt P22629 25-183). Description: aptamer microarray.
Sequence of streptavidin (P22629 25-183): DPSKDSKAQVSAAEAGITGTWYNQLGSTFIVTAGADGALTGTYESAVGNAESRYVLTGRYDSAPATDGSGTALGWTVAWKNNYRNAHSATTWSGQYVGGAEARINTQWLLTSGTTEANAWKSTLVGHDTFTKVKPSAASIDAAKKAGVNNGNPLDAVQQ

Consider ATTGACCGCTGTGTGACGCAACACTCAATTTTTTTTTTTT (structured_DNA) [St-2-1_T11], for which the binding result is “binds”.
